From article PMC8458385, “Molecular basis for PICS-mediated piRNA biogenesis and cell division” (Nature Communications, 2021)
Each block holds one binder with its values, some of them ahead of it.

B2: ERH-2 (natural protein, C. elegans, UniProt Q20057 1-113, looked up)
chain: MSTSSHTVLLIQTSPRLDSRTWGDYESVTDALDALCKMFEDFLSKKSAAPVTYDVSQVYEFLDKLSDVSMMIFNRETGQYIGRTRAWIKQQVYEMMRGRCQHPEGGEKVIVGY
notes: ERH-2, C. elegans, amplified from a cDNA library; also called wild type ERH-2; source: E. coli BL21(DE3), purified (Ni-NTA, TEV, second Ni-NTA); not shown: His tag (from the Ni-NTA purification), N-terminal, cleaved

What was measured:
ERH-2 D67A = biological target: T1, ERH-2 D67A (C. elegans, UniProt Q20057 1-113, D67A); test: ITC; MicroCal ITC200, 25 °C, 20 mM Tris pH 8.5, 200 mM NaCl or 20 mM MES pH 6.5, 200 mM NaCl; 1–2 mM in the syringe into 30–50 μM in the cell; one-site binding model; details: both partners purified
T1 construct: ERH-2, C. elegans; Cloned into pET28-MHL; also called D67A of ERH-2; source: E. coli BL21(DE3), purified as the wild type; not shown: His tag (from the Ni-NTA purification), N-terminal, cleaved
T1 sequence (looked up): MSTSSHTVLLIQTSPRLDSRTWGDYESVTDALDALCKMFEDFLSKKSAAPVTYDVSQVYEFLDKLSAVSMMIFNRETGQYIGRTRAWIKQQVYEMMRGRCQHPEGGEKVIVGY

ERH-2 = biological target: B2; test: as above; details: both partners purified
PICS-1^5-282 = biological target: T2, PICS-1^5-282 (C. elegans, UniProt O76616 5-282); test: SEC; ERH-2 and TOFU-6^RRM mixed with PICS-1 constructs, Superose 6 Increase 10/300 GL, 20 mM Tris hydrochloride pH 8.5, 200 mM NaCl; fractions on SDS-PAGE; details: both partners purified
T2 construct: Cloned into pET28-MHL; also called almost full-length PICS-1; source: E. coli BL21(DE3), purified (Ni-NTA, TEV, second Ni-NTA); not shown: His tag (from the Ni-NTA purification), N-terminal, cleaved
T2 sequence (looked up): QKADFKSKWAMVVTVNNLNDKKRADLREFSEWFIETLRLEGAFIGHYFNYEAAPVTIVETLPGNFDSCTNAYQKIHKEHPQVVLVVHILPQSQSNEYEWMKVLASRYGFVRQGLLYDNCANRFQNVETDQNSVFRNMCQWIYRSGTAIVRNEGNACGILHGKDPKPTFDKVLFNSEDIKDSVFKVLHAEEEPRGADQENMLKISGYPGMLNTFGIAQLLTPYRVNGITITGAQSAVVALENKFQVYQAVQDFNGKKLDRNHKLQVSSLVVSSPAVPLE

PICS-1^5-200 = biological target: T3, PICS-1^5-200 (C. elegans, UniProt O76616 5-200); test: as above; details: both partners purified
T3 construct: PICS-1 (PID-3), C. elegans, residues 5-200; Cloned into pET28-MHL; also called PICS-1^ΔRRM; PICS1^ΔRRM; source: E. coli BL21(DE3), purified (Ni-NTA, TEV, second Ni-NTA); not shown: His tag (from the Ni-NTA purification), N-terminal, cleaved
T3 sequence (looked up): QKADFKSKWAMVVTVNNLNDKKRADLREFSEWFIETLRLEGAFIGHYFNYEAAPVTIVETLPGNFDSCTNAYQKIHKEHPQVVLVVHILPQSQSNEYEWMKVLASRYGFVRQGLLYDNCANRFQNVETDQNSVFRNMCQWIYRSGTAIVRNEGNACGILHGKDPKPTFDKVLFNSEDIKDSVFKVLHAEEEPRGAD

[1] = biological target: the molecule itself; test: SEC; wild type and F217E of PICS-1^RRM on HiLoad 16/600 Superdex 75, 20 mM Tris hydrochloride pH 8.5, 200 mM NaCl
[2] = biological target: T4, TOFU-6^RRM (residues 2-92) (C. elegans, UniProt Q09293 2-92); test: ITC; MicroCal ITC200, 25 °C, 20 mM Tris pH 8.5, 200 mM NaCl or 20 mM MES pH 6.5, 200 mM NaCl; 1–2 mM in the syringe into 30–50 μM in the cell; one-site binding model; details: both partners purified
T4 construct: TOFU-6, C. elegans, RRM domain, residues 2-92; Gene codon-optimised and synthesised; for the crystal co-expressed with PICS-1^RRM from a modified pETDuet-1; also called TOFU-6 RRM domain; TOFU-6^C; source: E. coli BL21(DE3), purified (Ni-NTA, TEV, second Ni-NTA; complex with PICS-1^RRM also Superdex 75); not shown: His tag (from the Ni-NTA purification), N-terminal, cleaved
T4 sequence (looked up): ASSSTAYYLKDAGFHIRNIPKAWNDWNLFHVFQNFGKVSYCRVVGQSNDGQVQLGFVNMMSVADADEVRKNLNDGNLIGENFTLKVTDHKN

[3] = biological target: the molecule itself; test: crystal structure; SeMet TOFU-6^RRM (L73M)/PICS-1^RRM (I233M) complex, 1.95 Å; 2% 1,4-dioxane, 0.1 M Tris hydrochloride pH 8.0, 15% PEG 3350, 0.01 M nickel chloride, 18 °C
[4] = biological target: T5, TOFU-6^RRM (L73M) (SeMet) (C. elegans, UniProt Q09293 2-92, L73M, seleno-methionine (SeMet) labeled); test: as above; details: both partners purified
T5 construct: TOFU-6, C. elegans, RRM domain, residues 2-92; also called SeMet TOFU-6^RRM(L73M); source: E. coli BL21(DE3) in M9 medium with SeMet, purified with PICS-1^RRM (I233M) (Ni-NTA, TEV, Superdex 75); not shown: His tag (from the Ni-NTA purification), N-terminal, cleaved
T5 sequence (looked up): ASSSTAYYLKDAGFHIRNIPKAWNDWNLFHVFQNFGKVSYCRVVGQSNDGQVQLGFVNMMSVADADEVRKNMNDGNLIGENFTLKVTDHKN

[5] = biological target: the molecule itself; test: crystal structure; fusion protein ERH-2^1-103-(GSS)7-PICS-1^180-200, 2.40 Å; 15% 2-propanol, 0.1 M sodium citrate pH 5.0, 10% PEG 10000, 18 °C
[6] = biological target: T6, ERH-2^1-103-(Gly-Ser-Ser)7-PICS-1^180-200 (C. elegans, UniProt Q20057 1-103; O76616 180-200); test: ITC; MicroCal ITC200, 25 °C, 20 mM Tris pH 8.5, 200 mM NaCl or 20 mM MES pH 6.5, 200 mM NaCl; 1–2 mM in the syringe into 30–50 μM in the cell; one-site binding model; details: both partners purified
T6 construct: ERH-2, C. elegans, residues 1-103; 21-aa linker (Gly-Ser-Ser)7; PICS-1 (PID-3), C. elegans, EBM, residues 180-200; Cloned into pET28-MHL; The results on ITC say only 'ERH-2' for the fused part; the methods describe only the 1-103 fusion; also called ERH-2-(GSS)7-PICS-1; ERH-2^1-103-(GSS)7-PICS-1^180-200; source: E. coli BL21(DE3), purified (Ni-NTA, TEV, second Ni-NTA, Superdex 75); not shown: His …
T6 chain: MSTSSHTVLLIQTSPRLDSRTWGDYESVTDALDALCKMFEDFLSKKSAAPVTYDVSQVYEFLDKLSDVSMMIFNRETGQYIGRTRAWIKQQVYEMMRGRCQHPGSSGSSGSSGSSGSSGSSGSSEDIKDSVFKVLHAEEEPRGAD

Kd (ERH-2 D67A): 4.3 µM
Kd (ERH-2): 8.5 µM
B1: SUMO-fused PICS-1 ERH-2 binding motif (EBM, residues 180-200) (domain or fragment, C. elegans, UniProt O76616 180-200, looked up)
chain: EDIKDSVFKVLHAEEEPRGAD
notes: Cloned into pET28-SUMO; the Kds are for the SUMO fusion protein; also called PICS-1^EBM; PICS-1^180-200; source: E. coli BL21(DE3), purified (Ni-NTA); not shown: SUMO, N-terminal, kept

Binder: B2
binding result (PICS-1^5-282): binds
binding result (PICS-1^5-200): binds

Kd [2]: 0.0062 µM
B3: PICS-1^RRM (residues 201-282) (domain or fragment, C. elegans, UniProt O76616 201-282, looked up)
chain: QENMLKISGYPGMLNTFGIAQLLTPYRVNGITITGAQSAVVALENKFQVYQAVQDFNGKKLDRNHKLQVSSLVVSSPAVPLE
notes: Homodimer in the crystal and by gel filtration; also called PICS-1(PID-3) RRM domain; PID-3; source: E. coli BL21(DE3), purified (Ni-NTA, TEV, second Ni-NTA, Superdex 75); not shown: His tag (from the Ni-NTA purification), N-terminal, cleaved
binding result [1]: binds

binding result [4]: binds
B4: PICS-1^RRM (I233M) (SeMet) (domain or fragment, C. elegans, UniProt O76616 201-282, looked up)
chain: QENMLKISGYPGMLNTFGIAQLLTPYRVNGITMTGAQSAVVALENKFQVYQAVQDFNGKKLDRNHKLQVSSLVVSSPAVPLE
modifications: seleno-methionine (SeMet) labeled
notes: also called SeMet PICS-1^RRM(I233M); source: E. coli BL21(DE3) in M9 medium with SeMet, purified with TOFU-6^RRM (L73M) (Ni-NTA, TEV, Superdex 75); not shown: His tag (from the Ni-NTA purification), N-terminal, cleaved
binding result [3]: binds

B5: ERH-2 (1-103), the ERH-2 part of the crystallised fusion proteins (domain or fragment, C. elegans, UniProt Q20057 1-103, looked up)
chain: MSTSSHTVLLIQTSPRLDSRTWGDYESVTDALDALCKMFEDFLSKKSAAPVTYDVSQVYEFLDKLSDVSMMIFNRETGQYIGRTRAWIKQQVYEMMRGRCQHP
notes: ERH-2, C. elegans, residues 1-103; In the crystals it stood joined on one chain with PICS-1^180-200 (via (GSS)7) or TOST-1^34-54 (via (GSS)6); written apart for the rows of the two partners; also called ERH-2^A; ERH-2^B; source: E. coli BL21(DE3), purified as part of the fusion proteins m8 and m9
binding result [5]: binds

Kd [6]: 12 µM
Kd (ERH-2): 18 µM
B6: SUMO-fused PID-1^50-70 (domain or fragment, C. elegans, UniProt Q19541 50-70, looked up)
chain: TNLHRKVTLSDRFELAALGYE
notes: PID-1, C. elegans, residues 50-70; the results say it was fused to the C-terminus of SUMO; also called PID-1 fragment; source: E. coli BL21(DE3), purified (Ni-NTA); not shown: SUMO, N-terminal, kept
